Four molecules from patent US20240010753A1 (EPIMAB BIOTHERAPEUTICS HK, published 2024) can be followed below.

For assay [1], the target named is T1, recombinant human ROR1-ECD protein (human, UniProt Q01973 30-406).
T1 construct: also called human ROR1 extracellular domain
Nature of the assay: competition ELISA: biotinylated ROR1-ECD pre-mixed with the row's antibody; competitor coated on the plate: ROR1-mAb004. Here is the method:
(§1) The binding epitope of ROR1 antibodies were identified with a competition ELISA. Briefly, 96 well plates were coated with 1 ug/mL purified antibodies and incubated overnight at 4° C. After washing with PBS containing 0.05% Tween 20, plates were blocked with blocking buffer (PBS containing 0.05% Tween 20 and 2% BSA) at 37° C. for 2 hours. Biotinylated human ROR1-ECD protein pre-mixed with ROR1 antibody (sample) or irrelevant mouse IgG (baseline) was added into plate wells and incubated at 37° C. for 1 hour before being washed 3 times. Streptavidin-HRP (1:5000 dilution) was then added into each well and incubated at 37° C. for 1 hour before being washed another 3 times. Tetramethylbenzidine (TMB) chromogenic solution was added for color development for 5 minutes then the reaction was stopped with 1M HCl. Absorbance at 450 nm (OD₄₅₀) was measured on a microplate reader. The OD450baseline represents the level of human ROR1-ECD binding to ROR1 antibodies at absence of competition, while the difference between OD450baseline and OD450ₛₐₘₚₗₑ reflects the competition between the ROR1 antibody coated on plate and the antibody in solution. The inhibition percentage was calculated by following equation: […]
In general terms: In an ELISA, binding on a coated surface is turned into a signal by an enzyme label.

Assay [2] addresses T1, recombinant human ROR1-ECD protein. Nature of the assay: competition ELISA: biotinylated ROR1-ECD pre-mixed with the row's antibody; competitor coated on the plate: ROR1-Tab1. Here is the method:
as §1

For assay [3] the target is unchanged. Briefly: competition ELISA: biotinylated ROR1-ECD pre-mixed with the row's antibody; competitor coated on the plate: ROR1-Tab2. Here is the method:
as §1

The target in assay [4] is T2, human ROR1 on cells (human, UniProt Q01973 30-937).
T2 construct: whole, on cells; the cell line is named under assay; also called CHO-ROR1; CHOK1-ROR1
T2 sequence (Q01973 30-937): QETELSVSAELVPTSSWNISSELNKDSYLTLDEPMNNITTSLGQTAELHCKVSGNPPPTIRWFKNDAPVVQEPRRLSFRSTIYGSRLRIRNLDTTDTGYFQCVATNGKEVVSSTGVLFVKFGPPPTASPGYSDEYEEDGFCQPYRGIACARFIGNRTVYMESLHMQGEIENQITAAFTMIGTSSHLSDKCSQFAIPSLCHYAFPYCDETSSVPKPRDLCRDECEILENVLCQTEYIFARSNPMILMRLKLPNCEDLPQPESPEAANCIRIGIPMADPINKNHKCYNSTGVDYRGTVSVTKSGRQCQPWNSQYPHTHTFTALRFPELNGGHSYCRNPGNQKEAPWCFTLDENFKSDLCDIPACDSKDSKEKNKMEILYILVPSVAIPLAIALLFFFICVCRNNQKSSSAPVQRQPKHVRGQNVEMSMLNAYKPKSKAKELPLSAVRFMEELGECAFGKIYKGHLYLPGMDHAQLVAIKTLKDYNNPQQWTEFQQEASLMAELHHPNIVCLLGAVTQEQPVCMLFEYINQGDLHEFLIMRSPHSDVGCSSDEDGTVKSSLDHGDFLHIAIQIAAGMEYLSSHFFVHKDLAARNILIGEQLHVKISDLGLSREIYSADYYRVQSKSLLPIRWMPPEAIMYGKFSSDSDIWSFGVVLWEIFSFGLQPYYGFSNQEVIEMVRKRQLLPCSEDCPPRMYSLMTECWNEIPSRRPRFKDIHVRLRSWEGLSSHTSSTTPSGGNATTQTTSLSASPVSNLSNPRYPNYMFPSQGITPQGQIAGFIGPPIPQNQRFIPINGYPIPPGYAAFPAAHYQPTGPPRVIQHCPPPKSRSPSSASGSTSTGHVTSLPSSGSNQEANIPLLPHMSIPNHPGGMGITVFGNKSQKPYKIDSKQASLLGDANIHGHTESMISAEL
Nature of the assay: flow cytometry on RPMI-8226 myeloma cells. The procedure:
(§2) Cell binding activity of anti-ROR1 antibodies were measured with human ROR1 transfected CHO cell line (CHO-ROR1) and ROR1-expressing myeloma cell line (RPMI8226). Briefly, 5×10⁵ cells were seeded into each well of a 96-well plate. Cells were centrifuged at 400 g for 5 minutes and supernatants were discarded. For each well, 100 μl of serially diluted antibodies were then added and mixed with the cells. After 40 minutes incubation at 4° C., plates were washed several times to remove excess antibodies. Secondary fluorochrome-conjugated goat anti-mouse IgG antibody was then added and incubated with cells at room temperature for 20 minutes. After another round of centrifugation and a washing step, cells were resuspended in FACS buffer for reading on a CytoFLEX Flow Cytometer (Beckman Coulter). Median Fluorescence Intensity (MFI) readouts were plotted against antibody concentration and analyzed with GraphPad Prism 6.0 software. The results shown in FIGS. 2A-B illustrate the binding activities of anti-ROR1 monoclonal antibodies ROR1-mAb004 and ROR1-Tab1 to ROR1 expressing cells. An irrelevant mIgG1 was used as negative control.
A general note: Flow cytometry measures light scatter and fluorescence of single cells or particles in a stream.

For assay [5], the target named is T2, human ROR1 on cells. Nature of the assay: flow cytometry on human ROR1 transfected CHO cells (CHOK1-ROR1). The procedure: as §2
The target of assay [6] is T1, recombinant human ROR1-ECD protein. Briefly: ELISA, ROR1-ECD coated at 1 ug/mL. The procedure: The binding specificity and potency of anti-ROR1 antibodies were characterized by protein ELISA and flow cytometry analysis of cell surface binding. Briefly, binding properties of the anti-ROR1 antibodies were measured with ELISA as follows: recombinant ROR1-ECD protein was coated at 1 μg/mL on 96-well plates at 4° C. overnight. Plates were washed once with washing buffer (PBS containing 0.05% Tween 20) and blocked with ELISA blocking buffer (1% BSA in PBS containing 0.05% Tween 20) at room temperature for 2 hours. Anti-ROR1 antibodies were then added and incubated at 37° C. for 1 hour. Plates were washed three times with washing buffer. HRP labeled anti-mouse IgG secondary antibody (Sigma, Cat. #A0168) was added and the plates were incubated at 37° C. for 30 minutes then washed 5 times in washing buffer. 100 μl of tetramethylbenzidine (TMB) chromogenic solution was added to each well. Following color development, the reaction was stopped with 1 Normal HCl and absorbance at 450 nm was measured on a Varioskan™ LUX microplate reader (ThermoFisher Scientific). Binding signals were plotted against antibody concentration with GraphPad Prism 6.0 software and EC50s were calculated accordingly.

Assay [7] has the same target. Briefly: BLI (Octet RED96), antibody captured on anti-mouse IgG Fc sensors, ROR1-ECD in solution, 25 C, 1:1 fit. Here is the method: Briefly, Anti-Mouse IgG Fc Capture (AMC) Biosensors were used to capture purified anti-ROR1 antibodies. Sensors were then dipped into solutions containing recombinant human ROR1-ECD protein to detect target protein binding to the captured antibodies. Kinetics constants were determined by processing and fitting data to a 1:1 binding model using Fortebio analysis software. Shown below in Table 2 are the results obtained for ROR1-mAb004 in comparison with two previously described anti-ROR1 monoclonal antibodies, ROR1-Tab1 is clone R12 as described in WO2014167022, and ROR1-Tab2 is clone D10 as described in WO2012097313.
(In BLI a coated tip is dipped into the sample, and binding shifts an interference pattern.)

The target in assay [8] is T2, human ROR1 on cells. Nature of the assay: flow cytometry on RPMI8226 cells, internalization assay, 4°C control (coincides with 37°C + PAO). Here is the method:
The binding internalization of humanized anti-ROR1 antibodies were characterized with ROR1-expressing myeloma cell line RPMI8226 with a method similar to that described previously in Example 1.4. Briefly, cells were harvested and resuspended in FACS buffer at density of 3 million per mL. Diluted antibodies were added to the tubes and incubated for 30 min at 4° C. After the first incubation, cells were washed three times with cold PBS to remove unbound antibody. Then, the cells of each antibody treatment were split into three groups, 4° C., 37° C. and 37° C.+PAO, respectively. Cells in the 37° C. […] After another round of centrifugation and washing step, cells were resuspended in FACS buffer for reading on a CytoFLEX Flow Cytometer (Beckman Coulter). An irrelevant mouse IgG control (MFIbackground) was calculated and used for background calibration. The difference between the MFI readout of “control” and that of “internalization” (ΔMFI) reflects the internalization of ROR1 antibodies, and such difference in relative to calibrated MFI of “control” reflects percentage of antibody internalization, which is calculated as follows and is summarized below in Table 15. […] The calculated antibody internalization percentages of HuROR-mAb004-1 and FIT1007-12B-17 were consistent with the results shown in Example 1.4, Table 4.

The target of assay [9] is T2, human ROR1 on cells. Briefly: flow cytometry on NCI-H1975 cells, MFI. The procedure: (§3) Briefly, 5×10⁵ cells were seeded into each well of a 96-well plate. Cells were centrifuged at 400 g for 5 minutes and supernatants were discarded. For each well, […] of serially diluted antibodies were then added and mixed with the cells. After 40 minutes of incubation at 4° C., plates were washed several times to remove excess antibodies. Secondary fluorochrome-conjugated goat anti-human IgG antibody was then added and incubated with cells at room temperature for 20 minutes. After another round of centrifugation and a washing step, cells were resuspended in FACS buffer for reading on a CytoFLEX Flow Cytometer (Beckman Coulter). Median Fluorescence Intensity (MFI) readouts were plotted against antibody concentration and analyzed with GraphPad Prism 6.0 software.

Assay [10] addresses T2, human ROR1 on cells. Briefly: flow cytometry on RPMI-8226 cells, MFI. The procedure:
as §3

Assay [11] deals with T2, human ROR1 on cells. Nature of the assay: flow cytometry on MDA-MB-231 cells, MFI. Here is the method: as §3
Assay [12] addresses T2, human ROR1 on cells. Nature of the assay: flow cytometry on A549 cells, MFI. The procedure: as §3
Assay [13] deals with T1, recombinant human ROR1-ECD protein. Nature of the assay: BLI (Octet), 6 ROR1 antigen concentrations, 3 fold diluted from 500 nM. The procedure: (§4) The ROR1/CD3 FIT-Ig proteins were assayed for and ranked by dissociation rate constant (koff, “off-rate”) using an Octet®RED96 biolayer interferometry (Pall FortéBio LLC). Anti-hIgG Fc Capture (AHC) Biosensors (Pall) were first exposed to antibody at a concentration of 100 nM for 30 seconds to capture antibody, then dipped into running buffer (1× pH 7.2 PBS, 0.05% Tween 20, 0.1% BSA) for 60 seconds to check baseline. Sensors with captured antibody were dipped into recombinant human ROR1 ECD protein at 10 ug/ml for 5 minutes to measure association, followed by dipped into running buffer for 1200 seconds to measure dissociation. The association and dissociation curves were fitted to a 1:1 Langmuir binding model using ForteBio Data Analysis software (Pall). The off-rate ratios were calculated by the off-rate of antibody to that of FIT1007-12B. Lower ratio indicates slower dissociation of the antibody in comparison with the parental chimeric antibody FIT1007-12B.
ROR1 binding affinity/kinetics of the humanized candidate FIT1007-12B-17 and its parental chimeric FIT-Ig FIT1007-12B were measured using the same method as described in Example 3. For each antibody, measurements were titrated by 6 antigen concentrations, i.e., 3 fold diluted from 500 nM. Binding kinetics of FIT1007-12B-18, MAT1007-12B-17 and MAT1007-12B-18 are similar to those of FIT1007-12B-17. These candidates share the same ROR1 binding Fab.

For assay [14] the target is unchanged. Nature of the assay: BLI (Octet RED96), FIT-Ig captured on anti-hIgG Fc sensors, ROR1 ECD at 10 ug/ml; the reference itself. The procedure: as §4

T1 sequence (Q01973 30-406): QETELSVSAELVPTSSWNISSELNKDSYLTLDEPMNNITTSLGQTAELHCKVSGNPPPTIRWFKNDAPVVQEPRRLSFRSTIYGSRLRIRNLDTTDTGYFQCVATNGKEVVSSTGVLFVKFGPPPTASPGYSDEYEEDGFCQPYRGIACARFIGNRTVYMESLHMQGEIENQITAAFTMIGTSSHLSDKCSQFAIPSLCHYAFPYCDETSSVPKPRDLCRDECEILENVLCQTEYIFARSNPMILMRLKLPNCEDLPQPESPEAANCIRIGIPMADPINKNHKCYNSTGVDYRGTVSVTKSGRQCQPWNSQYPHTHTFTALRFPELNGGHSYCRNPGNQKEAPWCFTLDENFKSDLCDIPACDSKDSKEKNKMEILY

B1: ROR1-mAb004 (antibody, V domains shown)
VH: QVQLQQSGPELVKPGASVKISCKASGYAFSRSWMNWVKQRPEKGLEWIGRIYPGNGDIKYNGNFKGKATLTADKSSSTAYMQLSSLTSEDSAVYFCAHIYYDFYYALDYWGQGTSVTVSS
VL: DIQLTQSPSSLSASLGGKVTITCKASQDINKYITWYQHKPGKGPRLLIHYTSTLQPGIPSRFSGSGSGRDYSFSISNLEPEDIATYYCLQYDSLLWTFGGGTKLEIK
notes: Mouse hybridoma monoclonal antibody; captured and detected through mouse IgG Fc
Regarding B1, the values for the Inhibition % in assay [1], in assay [2] and in assay [3] were 93%, -22% and 92%, respectively. The concentration giving a half-maximal response (EC50) (as a rule, the concentration giving half of the maximal effect) in the assay with human ROR1 on cells [4] is 0.983 nM; with human ROR1 on cells [5], 2.31 nM; in [6], 0.022 nM. Also, the Kd (commonly the free concentration of one partner at which half of the binding sites on the other are occupied at equilibrium, for simple one-to-one binding) in assay [7] was 18.5 nM. Also, in [7], the off-rate (koff) (in general, the rate constant with which the complex falls apart) turned out to be 0.00171 s⁻¹. For the same molecule, the kon (usually the rate constant with which the complex forms) in [7] turned out to be 92500 M⁻¹ s⁻¹.

B2: HuROR1-mAb004-1 (antibody, V domains shown)
VH: EVQLVQSGAEVKKPGSSVKVSCKASGYTFSRSWMNWVRQAPGQGLEWMGRIYPGNADIKYNANFKGRVTITADKSTSTAYMELSSLRSEDTAVYYCAHIYYDFYYALDYWGQGTTVTVSS
VL: DIQMTQSPSSLSASVGDRVTITCKASQDINKYITWYQQKPGKAPKLLIYYTSTLQPGVPSRFSGSGSGTDYTFTISSLQPEDIATYYCLQYDSLLWTFGGGTKVEIK
notes: only the variable domains are tied to it; also called HuROR-mAb004-1; parental anti-ROR1 monoclonal IgG1 antibody
In the case of B2, the EC50 (read off the curve) (usually the concentration giving half of the maximal effect) was ~1 nM in the assay with human ROR1 on cells [8]; ~2 nM in the assay with human ROR1 on cells [9]; ~1 nM with human ROR1 on cells [10]; ~2 nM in the assay with human ROR1 on cells [11]; ~1 nM with human ROR1 on cells [12].

B3: FIT1007-12B (bispecific antibody, human IgG1, kappa, L234A L235A)
chain 1: not shown
chain 2: QVQLQQSGPELVKPGASVKISCKASGYAFSRSWMNWVKQRPEKGLEWIGRIYPGNGDIKYNGNFKGKATLTADKSSSTAYMQLSSLTSEDSAVYFCAHIYYDFYYALDYWGQGTSVTVSSASTKGPSVFPLAPSSKSTSGGTAALGCLVKDYFPEPVTVSWNSGALTSGVHTFPAVLQSSGLYSLSSVVTVPSSSLGTQTYICNVNHKPSNTKVDKKVEPKSC
chain 3: not shown
notes: also called parental chimeric FIT-Ig; chimeric antibody (FIT1007-12B)
As to B3, in assay [13], the Kd amounted to 5.67 nM, the koff worked out at 0.00103 s⁻¹ and the kon was 182000 M⁻¹ s⁻¹. For the same molecule, in assay [14], the “Off-rate Ratio” value came to 100%.

B4: ROR1-Tab1 (antibody, V domains shown)
VH: QEQLVESGGRLVTPGGSLTLSCKASGFDFSAYYMSWVRQAPGKGLEWIATIYPSSGKTYYATWVNGRFTISSDNAQNTVDLQMNSLTAADRATYFCARDSYADDGALFNIWGPGTLVTISS
VL: ELVLTQSPSVSAALGSPAKITCTLSSAHKTDTIDWYQQLQGEAPRYLMQVQSDGSYTKRPGVPDRFSGSSSGADRYLIIPSVQADDEADYYCGADYIGGYVFGGGTQLTVTG
notes: also called clone R12; R12 as described in WO2014167022
Consider B4, for which the values for the Inhibition % in [1], in assay [2] and in [3] were -54%, 95% and -84%, respectively. In addition, the concentration for a half-maximal effect (EC50) with human ROR1 on cells [4] turned out to be 0.128 nM; with human ROR1 on cells [5] it was 0.774 nM; in [6] it was 0.025 nM. In [7], the Kd amounted to 1.28 nM. Also, the koff in [7] is 0.00066 s⁻¹. The kon in assay [7] came out at 517000 M⁻¹ s⁻¹.
